Results reported in publication PMC2901922.

Legend:
Assay in all cases: EMSA
[1] = target: T1, Acr-Link2-λN22 (bacteriophage λ, UniProt P03045 1-22)
T1 chain: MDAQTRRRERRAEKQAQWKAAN

[2] = target: T2, λN22 (bacteriophage λ, UniProt P03045 1-22)
T2 chain: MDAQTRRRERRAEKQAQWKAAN

[3] = target: T3, λN11 (bacteriophage λ, UniProt P03045 1-11)
T3 chain: MDAQTRRRERR

Measured: binding result

GCCCUGAAAAAGGGC (structured_RNA) [λ boxB 15mer]
binds: all assays above
